Test results reported in article PMC12812394.

Molecular target: Pi65-nLUC (rice (Oryza sativa ssp. japonica cv. GY129))
Test: split reporter (BiFC, NanoBiT); NanoLuc luciferase complementation (nLUC/cLUC fusions, 35S promoter) in co-infiltrated Nicotiana benthamiana leaves, 48-72 h at 22 °C; whole-leaf luminescence with furimazine, 1-min exposure

luminescence, fold over the negative controls: 12.3 fold
B1: OsAPx4-cLUC (enzyme)
chain: MAAPVVDAEYLRQVDRARRHLRALISSKGCAPIMLRLAWHDAGTYDVNTKTGGANGSIRYEEEYTHGSNAGLKIAIDLLEPIKAKSPKITYADLYQLAGVVAVEVTGGPTVEFIPGRRDSSVCPREGRLPDAKKGALHLRDIFYRMGLSDKDIVALSGGHTLGRAHPERSGFEGAWTQEPLKFDNSYFLELLKGESEGLLKLPTDKALLEDPSFRRYVDLYARDEDTFFKDYAESHKKLSELGFTPRSSGPASTKSDLSTGAVLAQSAVGVAVAAAVVIVSYLYEASKKSK
